Laboratory results from publication PMC3527619.

Key:
[1] = biological target: Microtubules (polymerized Tubulin, Triton-insoluble fraction) of HeLa cells (human (endogenous in HeLa)) (UniProt P68363); test: Triton-X-100 extraction of soluble and insoluble (cytoskeletal) fractions, Western blot and densitometry; HeLa cells transfected with pCGN-Centaurin-α2; 0.1% Triton-X-100 in Pipes pH 6.94, EGTA, MgCl2, 2 M glycerol, 10 min at room temperature; control cells or cells treated with nocodazole (3 µg/ml, 3 h) or cold (4°C, 3 h)
Chain of UniProt P68363 (P68363 whole entry, chain 1 of 2): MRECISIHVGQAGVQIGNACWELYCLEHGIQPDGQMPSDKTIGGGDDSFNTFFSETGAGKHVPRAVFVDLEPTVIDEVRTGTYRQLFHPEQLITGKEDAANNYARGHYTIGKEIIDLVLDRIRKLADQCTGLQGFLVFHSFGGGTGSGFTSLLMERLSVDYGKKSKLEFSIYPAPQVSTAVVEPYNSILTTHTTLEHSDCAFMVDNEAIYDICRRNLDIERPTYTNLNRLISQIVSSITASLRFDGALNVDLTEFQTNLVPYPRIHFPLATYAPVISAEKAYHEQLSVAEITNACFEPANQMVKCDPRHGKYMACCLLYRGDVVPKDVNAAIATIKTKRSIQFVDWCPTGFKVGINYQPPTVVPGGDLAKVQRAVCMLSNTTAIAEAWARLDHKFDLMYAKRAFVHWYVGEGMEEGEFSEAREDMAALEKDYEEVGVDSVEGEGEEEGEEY
Chain of UniProt P68363 (P07437 whole entry, chain 2 of 2, further chain): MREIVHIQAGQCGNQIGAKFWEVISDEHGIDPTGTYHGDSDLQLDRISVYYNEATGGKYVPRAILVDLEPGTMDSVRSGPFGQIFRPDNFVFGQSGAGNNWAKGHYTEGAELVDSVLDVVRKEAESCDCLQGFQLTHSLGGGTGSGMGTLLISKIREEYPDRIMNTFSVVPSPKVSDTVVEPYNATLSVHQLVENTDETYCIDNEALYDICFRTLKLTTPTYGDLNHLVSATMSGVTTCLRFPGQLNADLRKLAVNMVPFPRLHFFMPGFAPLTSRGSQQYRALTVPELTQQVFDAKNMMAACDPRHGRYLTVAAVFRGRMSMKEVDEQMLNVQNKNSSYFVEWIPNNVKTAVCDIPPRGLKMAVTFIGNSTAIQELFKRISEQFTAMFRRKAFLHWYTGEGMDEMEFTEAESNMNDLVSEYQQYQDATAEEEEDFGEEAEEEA

[2] = biological target: Tubulin purified from bovine brain, polymerised to microtubules in vitro (bovine) (UniProt Q6B856); test: co-sedimentation; as a4 (40 µM tubulin plus 5 µM Centaurin-α2, 90 minutes at 37°C), then 30 minutes of incubation on ice before centrifugation (37°C→4°C)
[3] = biological target: Tubulin purified from bovine brain, polymerised to microtubules in vitro (bovine) (UniProt Q6B856); test: co-sedimentation; 40 µM tubulin plus 5 µM Centaurin-α2, 90 minutes of polymerization at 37°C in 80 mM K-PIPES pH 6.9, 2 mM EGTA, 1 mM MgCl2, 10% glycerol; 16500 g for 30 minutes; supernatant and pellet on SDS-PAGE, Coomassie, densitometry

| percent of Centaurin-α2 in the Triton-insoluble (MT) fraction [1] [%] | percent of Centaurin-α2 in the MT (pellet) fraction [2] [%] | percent of Centaurin-α2 in the MT (pellet) fraction [3] [%] | Binder |
| --- | --- | --- | --- |
| 80 |  |  | HA (hemoagglutinin)-tagged Centaurin-α2 (pCGN-Centaurin-α2) (natural protein) MGDRERNKKRLLELLRAPDTGNAHCADCGAADPDWASYKLGIFICLNCCGVHRNFPDISRVKSVRLDFWDDSIVEFMIHNGNLRVKAKFEARVPAFYYIPQANDCLVLKEQWIRAKYERREFMADGETISLPGNREGFLWKRGRDNSQFLRRKFVLLAREGLLKYFTKEQGKSPKAVISIKDLNATFQTEKIGHPHGLQITYRRDGHTRNLFVYHESGKEIVDWFNALRAARLQYLKMAFPELPESELVPFLTRNYLKQGFMEKTGPKQKEPFKKRWFALDCHERRLLYYKNPLDAFEQGQVFLGNKEQGYEAYEDLPKGIRGNRWKAGLTIVTPERRFVLTCPSEKEQQEWLESLRGVLSSPLTPLNRLTASTESGRSSR |
|  | 50 | 80 | His-tagged Centaurin-α2 (recombinant, pET-Centα2) (natural protein) MGDRERNKKRLLELLRAPDTGNAHCADCGAADPDWASYKLGIFICLNCCGVHRNFPDISRVKSVRLDFWDDSIVEFMIHNGNLRVKAKFEARVPAFYYIPQANDCLVLKEQWIRAKYERREFMADGETISLPGNREGFLWKRGRDNSQFLRRKFVLLAREGLLKYFTKEQGKSPKAVISIKDLNATFQTEKIGHPHGLQITYRRDGHTRNLFVYHESGKEIVDWFNALRAARLQYLKMAFPELPESELVPFLTRNYLKQGFMEKTGPKQKEPFKKRWFALDCHERRLLYYKNPLDAFEQGQVFLGNKEQGYEAYEDLPKGIRGNRWKAGLTIVTPERRFVLTCPSEKEQQEWLESLRGVLSSPLTPLNRLTASTESGRSSR |
